The text below walks through data of the domain aggregation screens of Martell et al. (2025).

This data set is described as follows: soluble fraction after stress (log2 fold change); higher = more stays soluble; pooled small domains, quantitative proteomics. To be noted: stress: pH 4. The essentials:
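High-throughput quantitative proteomics was run on pooled custom libraries of small protein domains following pH 4 stress. Fold changes are on a log2 scale; higher values mean more of a domain remained soluble. The fold change in soluble amount is taken as a measure of aggregation propensity.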
As to “HMDRENNITAGREILEKELSRLALNMKMVNLQDYAARFNVKHSDDILAGIGAGDIRPAHIVNAIAEKLT”, the “soluble fraction (log2)” value was -0.304.

Consider “HMDREQLELYVGEVRVLQVGELRRIAIGNGKVLQASALDRGQLLLIPEAPGQSVLYLWTRDGTERHLSISV”, for which the “soluble fraction (log2)” value is -0.81.

Take “HMDRESFIKLGRELARSAFAHVGQKSTEKALETAADVLRLKDPNEVLARLGSAELTGRQVVQAIYPELI”: the “soluble fraction (log2)” value was determined as 0.0233.

With “HMDRFRYYITEDSVQRGTYPYVDETTLKRFTSQLHKYEQGMISAYGYLEYSKPLTAEQIKDYTLMPSP”, the “soluble fraction (log2)” value was -0.485.

For the sequence “HMDRFVLQLSKRYYDSSIEGVRKALAAFPVKTELLDQDRGGRPFYHENGKENEPVFRIMFHPEEGM”, the “soluble fraction (log2)” value is -0.116.

Take “HMDRIISTPMPGRVVKIPVTEGEPVAKGATVITISAMKMESEYKSPIDGIVKKIHVSEGDNINANQPLIEI”: the “soluble fraction (log2)” value was -0.112.

For “HMDRKFFYEDQYQDYLGEELKVSFFDTDNKKTVRGTLSEVTPHGIKINLEQETQEIPFSSIIQANLI”, the “soluble fraction (log2)” value was -0.44.

For “HMDRPARDEAQSWLADVLADGPVPTAEIREEAEAAGLAWRTIQRARIALSVEPIRGDGRNAWLWQLPG”, the “soluble fraction (log2)” value came to 0.377.

Turning to “HMDRQIQITVAENEAGQRLDAFLAAKIPDMSRSYIQKLIEDGLILVNGQSTKGKVKTYSGMNIEVYMPE”, the “soluble fraction (log2)” value was determined as 0.22.

Take “HMDRRDEYHQHLLRLLLSGEIRDKDELQRRKVKLSGEYGLAGVPKNSETLALVPPDRLPEVLDILR”: the “soluble fraction (log2)” value is -0.289.

For the sequence “HMDRSIGDIIAELRDLSAEQVERVLAHQRETGVRFGEAAVALGYASKEDVLFALSQQFHYPYAPEE”, the “soluble fraction (log2)” value was -0.946.

With “HMDRSVTAAELRLAAMDLLARREHGSQELEAKLSRRFHKRHYDVELLRSVIEQLTVEGLLSDERFAVS”, the “soluble fraction (log2)” value is -1.07.

Consider “HMDRVTYPVSFNGKVRFQLELDAGMNAKEVETAALGHEKTAAQIEGKTIRKVIVVPGRIINIVV”, for which the “soluble fraction (log2)” value is -0.404.

Turning to “HMDRWTPLVVAVLSRGSHRFGELRAAIGGITPKVLTDTLRSMERDGLITRDQAPGVPPRVDYALTPLGS”, the “soluble fraction (log2)” value was -0.126.

Regarding “HMDSALKDDLNAFVKKLDVESQTLFMRRYFLGESVSSLASRFEMSEDNVGVKLFRIRAKLKKYLTGKGYD”, the “soluble fraction (log2)” value was -0.445.

Consider “HMDSAMMDLVMRVQLALFTKGYDVGIIDGKIGPKTRAQIKRYQSDNRLSSTGTLTTSLLTSLGIQ”, for which the “soluble fraction (log2)” value was determined as 0.00457.

With “HMDSATDRVALKELLNTLSARERTIITLRYFSDQTQTQVAKSLGISQVQVSRLENAILQRLRKL”, the “soluble fraction (log2)” value was -0.271.

As to “HMDSDELEAFRLITSVNGVGPKLGIAILSEFTAEKLTVFIASGDAKALTAASGVGIKLAQRIVLELKDKVG”, the “soluble fraction (log2)” value was -0.184.

Consider “HMDSDFIKIEVLFNERNRLDLKAMMEASGFTDRGQFLSIMADLTGDENWDRNLDRGDIFYLPRSFTI”, for which the “soluble fraction (log2)” value is -1.6.

Consider “HMDSDIGQQLKILLTVGTFMPSTELKAIAQQFGMKKPTDLKEWVELESDTQRIKGNPTKGYWINEINDL”, for which the “soluble fraction (log2)” value is -0.262.

For the sequence “HMDSEEVYQMTKHKMDAAQISVAKRIHINLVLVKLLELHHLGYDLRHYHAQHHAFIKRLNLPEYFRFD”, the “soluble fraction (log2)” value is -0.832.

As to “HMDSEKVLTNLKEELVLQLSNIEPYGYVPSQYWYSKVQRVQSVQELGKYVDGDLEAFVMKYAEDWESQK”, the “soluble fraction (log2)” value is -0.951.

As to “HMDSGFMRTTQSYTVARLAEIFRLSGEDYLAVLREYDGWYQDLTSTKDLIRKGSDVPVPEGV”, the “soluble fraction (log2)” value was -1.02.

In the case of “HMDSGLEQAKTAALENAELETSQVTFIKAELDYDDGKKVYEIEFVTSAMKYEYQVKADDFSILEMSKETIE”, the “soluble fraction (log2)” value is -0.129.

For the sequence “HMDSHSAESVRQRIKDMIAAEASKSILSDDTIVENLKSEGIEIARRTVAKYRESLNIPSSIQRRRIARSEA”, the “soluble fraction (log2)” value was determined as 0.0843.

Consider “HMDSILMPGVVNKELREALAILKNEGIGWADPEYASSTVTRNYVISTDPVEGIELAPGQKVRLVVSLGPKP”, for which the “soluble fraction (log2)” value stood at 0.153.

On to “HMDSIQMKNNSILYYGNTAGYLDAKRNTAVVDPMFRTDEMESYLSEQKGLSVEWASGTYDRLT”, for which the “soluble fraction (log2)” value was -0.921.

As for “HMDSLEIEEPITVKSLSAASGLKISDIIRKLMQEGIMATANQVIDREQAEAVLIDYNVDLVVKR”, the “soluble fraction (log2)” value was 0.0392.

With “HMDSLNWVEKIINTLPEQQRLIIQMRDIEQYEFAEIAKILEMNETAIRVALSRARKTIREFMIKTH”, the “soluble fraction (log2)” value was ≥ 0.43.

In the case of “HMDSLSLTELRIDSASPWIGNRISDFSPYAGELVIMIIRGEETIVPNGDTIILDKDLLVIYSS”, the “soluble fraction (log2)” value was -1.39.

Regarding “HMDSNFNYELVGFRLDDMGLNSSVIVKRNNQEFVIQKGDLLENKYLLNSVTKKNINFSYLGKNYQI”, the “soluble fraction (log2)” value was -0.731.

Take “HMDSNPLSEREQEVLQLVAKGASNQTIAEQLFLSNGTIRNYMTAIFNKLNANNRTDAVRIARENGW”: the “soluble fraction (log2)” value was -0.24.

“HMDSPVEEWANRGLAYDPSLVTETMAKLYAKQGQIGLARKAFKRLALIYPEKSVYFAFQLKKLSNN”: the “soluble fraction (log2)” value was 0.0712.

Consider “HMDSPVLTAEIKALIDKELEQNAVKLATGLKKQRKRATDIHDALIRQGHEVSYRTVVRYIRNKTAQTS”, for which the “soluble fraction (log2)” value is ≥ 0.43.

With “HMDSTSEILKVIQNIVKKEDPYHPLSDDKISNLLNDLDYQISRRTVAKYRDILTIPSSSKRRKL”, the “soluble fraction (log2)” value is -0.0776.

Regarding “HMDSVEMFSPILGMNANMDLDTLTQTRDKLLEKYKDDEQLIGLVNKTYDYFNEILLKQFLIEELEKNE”, the “soluble fraction (log2)” value was -0.207.

As to “HMDSVFGVVTSSDGVKLRKEASTISKVLTVLPYGTEVDVDRIGSEWIRIVTDGGQKGYVSADYLAVREGER”, the “soluble fraction (log2)” value was -0.1.

In the case of “HMDSVPEEQLRQLALDKAKEVKRWGQPVELAKMNAHDRRIIHINLQDDPEIETRSEGEGALKSVIISLKK”, the “soluble fraction (log2)” value came out at 0.135.

Take “HMDSYADVLSDYRGKYKTNTISGLKGLRDKIREDMLAAADSLDFEKAALLRDEMNDLNKKIELKEKT”: the “soluble fraction (log2)” value is -0.486.

“HMDTERLYAYAWQTHLKQFGLNISEEEIRQFVGVDDRIVHSFYAKTVPLDDFENTMFSLGEIIQQSL”: the “soluble fraction (log2)” value was -2.08.

In the case of “HMDTFNVIARQEIDGILYEYKIMTVEDYKNQSPENLAVIYENIKAVMEQYDLSEDDADAILVDLLG”, the “soluble fraction (log2)” value is -1.51.

For “HMDTIRINSGSTVKEVAEYLGIPVPEVIKKLMSMGELATLTKTLSDDHIEVLAEEFEKKIKIVHVGEEAD”, the “soluble fraction (log2)” value is -0.61.

Consider “HMDTITDSYTLEKGKLRAKVMEYELPESKKKEYSATFEYRGVYYHMIGIIEKADFEEILKNLHFP”, for which the “soluble fraction (log2)” value was -0.53.

As for “HMDTIVVAARSIQARQTLTESDLRVEEQEIGAASDKYYTDIAEAVGLVSSRRLSPGQPILRTM”, the “soluble fraction (log2)” value is -0.273.

Take “HMDTLKDFISGVSIVFENKYSVGDNVTIGDFRGDVIELGMKTTKIRAYTGEVLIIPNHLVEKVINH”: the “soluble fraction (log2)” value was -0.665.

As for “HMDTLRARQEAAYRFLSAIAGDWRNYEEANRALFAGDAARFQDLTESWPADVRDHARHLASAAFSS”, the “soluble fraction (log2)” value is -1.15.

For the sequence “HMDTNAIIGLRIKNLRTEKKYTLKYLSENTGLSIGFLSQLERGMTSIAIDSLDKISKVLDVELSSFFT”, the “soluble fraction (log2)” value was -0.14.

For the sequence “HMDTNELIDRYVNEVGQHLPRKTRADIEMELRSLLLDTLEEQSGGEPTPKMAAEVLREFGHPEEIAAQYH”, the “soluble fraction (log2)” value was -0.755.

Turning to “HMDTRKKLEQIFKLFDKTGTGMVNIDEFKSVLKLFMEEIDEKFGNYFIAYFDENGDGKIEFEEFADVVL”, the “soluble fraction (log2)” value is -0.462.

As to “HMDTSAHEVLSAIRSIIEDEDKRHPLSDEAITSRLSQQGYDIARRTVAKYRERLGLPVARLRRE”, the “soluble fraction (log2)” value stood at 0.376.

For the sequence “HMDVALEALDESDGAVRLQFSGALQTYLNDSTTAASLEAISKTFRAFYEAAGRPVDTLEVYAAGEPVT”, the “soluble fraction (log2)” value is -0.42.

For the sequence “HMDVDKQLDQLLAAMIPDKSLRQTIKTKAFNELVDNELADKDISSWTKQTMDVFMTRAEDMFGAM”, the “soluble fraction (log2)” value was -1.43.

Take “HMDVEMLIDKYQLNDSEAEVLRFMKKNRQSLKTIGIRDVAKATYVSTATIINMAKKIGYSGYSELVFALGN”: the “soluble fraction (log2)” value is -0.319.

With “HMDVNAQAGYDKLQSNQLDGARHDYEQALKTDPNNVDTLLALAAIAQRQGRSADADGYRQRAIDAD”, the “soluble fraction (log2)” value was -0.245.

Take “HMDVNHVIIDHKGNSIQAIIDSIDLDNVYYQSKIKKESEVIDIDKVYFIFNDFDRVYHYDWSYYENL”: the “soluble fraction (log2)” value was -0.468.

Regarding “HMDVNLSIRSGETIGIIGSTGSAKSTLVQLIPRLYDTTEGEVLVGGVNVKNYDLEALRNSVAMVLQKN”, the “soluble fraction (log2)” value is -0.155.

As to “HMDVPNLVGEEIKDVRRTLRHFQLEVIGEGSKIVSQVPKHGQRLPENTTIRVYLN”, the “soluble fraction (log2)” value was -0.0434.

Consider “HMDVPNLVGKTLEEAENELKKLNIRYNVTERADEAPKDTVIEQSPKPYEAMEPGTVVNLVISSGPA”, for which the “soluble fraction (log2)” value is -0.912.

As to “HMDVQPHIYLRKLDQFWPADLHSLILYTLDGRRLWSADSGNIPALPHRASSLVILEATWDNGQRTRRKQFL”, the “soluble fraction (log2)” value was -0.116.

Consider “HMDVRKSISDLKALGLSDAAVTVYGTIGNKPVHIDKIVSELGIPVFKVLTALTQLEMKGLVTAMQGRMYVL”, for which the “soluble fraction (log2)” value is -0.168.

With “HMDVSASEVGLTGRQTDVLSLMVKGRSNRDIAELLGLSEGTVKIHITAIFKALGVASRTQALVAAARLGLK”, the “soluble fraction (log2)” value was -0.212.

As to “HMDVSLVEQTQRDILEYISKNNSNAQLPKEQEFVGLLGVSRVVVREALSRLRALGIIETKRKKGTVVVVPE”, the “soluble fraction (log2)” value was -0.31.

Take “HMDWVAYGAELRRRRLLAGWSVAELSRRTNLSTSIIYQVEQARTRLRPSQLTLAKLAAALGMP”: the “soluble fraction (log2)” value is -0.0217.

Consider “HMDYAQAQRQAESAIALRPDVERLRLLLIYALQKQGKLREAEQAAADAIKSGLDTPALRQARANLRP”, for which the “soluble fraction (log2)” value was -0.205.

As to “HMDYGSISFINWSIEVLSVIKTRLDRGDKIIDEVSGEKYTASSFEKFVRKNFSSYIFSQVYAEDHKK”, the “soluble fraction (log2)” value was -0.016.

“HMDYHTIQTGDKGDEVLRLQQALAEYGYYEGDLDGRFGQQTRRAVERFQYSHGLTADGIAGRNTLSVLYD”: the “soluble fraction (log2)” value was -0.051.

Regarding “HMDYIITHYPDNKRFETQVDGVVAFVQYRLSGDKLDIIHTIVPPAIGGRGIAAALVKYAYDYAIENGMK”, the “soluble fraction (log2)” value is -0.666.

On to “HMDYKSKLQELVQTEKRTVEYKLVDESGPAHNKSFTFEVVISGIKYGSGTGASKKIAEQNAAKEALEKLA”, for which the “soluble fraction (log2)” value is 0.144.

Turning to “HMDYKSTLQELVQTVKKSVTYEVIDEEGPSHNKTFTSIVKIDGIVMGKGTAGSKKASEQEAARDALSKR”, the “soluble fraction (log2)” value was -0.0966.
